We go through 12 molecules from US10550165B2, “Peptide for inducing regeneration of tissue and use thereof” (STEMRIM INC., priority 2011, dated 2020).

In test [1] the test system is mouse bone marrow mesenchymal stem cell line (MSC-1 cells), PDGFRα-positive. In words: Migration assay (Boyden / 48-well chemotaxis chamber) on bone marrow mesenchymal stem cell line MSC-1. As to conditions: for migration-promoting activity per equal mass, 2-215 taken as 1 / migration-promoting activity per molar concentration, 2-215 taken as 1: FIGS. 18C and 18D. Format: cell-based. The procedure: Cells of a mouse bone marrow mesenchymal stem cell line (MSC-1 cells, established by Tamai et al. of Osaka University (PDGFRα-positive cells in bone marrow are mobilized by high mobility group box 1 (HMGB1) to regenerate injured epithelia. (Tamai et al., Proc Natl Acad Sci USA. Apr. 4, 2011))) were detached from dishes using trypsin, and collected by centrifugation at 1200 rpm and 4° C. for 10 minutes. The resulting pellet was loosened and suspended at a cell concentration of 2.0×10^6 to 3.0×10^6 cells/ml by adding Dulbecco's Modified Eagle Medium (D-MEM) containing 10% fetal bovine serum (FBS). The recombinant protein and peptides produced in HEK293 were diluted with D-MEM containing 10% FBS. The negative control used was phosphate buffered saline (PBS). An acrylic Boyden chamber was used; cells of the mouse bone marrow mesenchymal stem cell line prepared at a cell concentration of 3×10^6 cells/ml were placed in its upper layer, while a diluted protein or peptide is added to the bottom layer. More specifically, a 28 μl aliquot of a protein or peptide solution was added to each well of the bottom plate of a 48-well chemotaxis chamber (NEURO PROBE 48WELL CHEMOTAXIS CHAMBER), and a polycarbonate membrane with 8 μm pores (Neuro Probe, Inc, Cat: 866-417-0014) was placed on the bottom plate. Then, an upper plate was placed on the membrane and screwed tightly. 50 μl of cells of the mouse bone marrow mesenchymal stem cell line after concentration adjustment were added to the upper plate wells. The chamber was placed in an incubator under 5% CO2 at 37° C. After four hours, the membrane was removed from the chamber and stained with Diff-Quik (Sysmex, Cat: 16920) to detect cells that migrated through membrane pores to the lower compartment.
The peptides listed below were custom synthesized using the solid phase method by Medical & Biological Laboratories (MBL). The peptides were synthesized based on the mouse HMGB1 sequence (SEQ ID NO: 3). Synthetic peptides described in subsequent Examples were also prepared based on the mouse HMGB1 sequence. • A synthetic peptide consisting of the amino acid sequence from positions 1 to 10 of HMGB1 (1-10); • a synthetic peptide consisting of the amino acid sequence from positions 1 to 34 of HMGB1 (1-34); • a synthetic peptide consisting of the amino acid sequence from positions 37 to 62 of HMGB1 (37-62); • a synthetic peptide consisting of the amino acid sequence from positions 27 to 62 of HMGB1 (27-62); • a synthetic peptide consisting of the amino acid sequence from positions 56 to 72 of HMGB1 (56-72); • a synthetic peptide consisting of the amino acid sequence from positions 11 to 20 of HMGB1 (11-20); • a synthetic peptide consisting of the amino acid sequence from positions 11 to 25 of HMGB1 (11-25); • a synthetic peptide consisting of the amino acid sequence from positions 11 to 30 of HMGB1 (11-30); • a synthetic peptide consisting of the amino acid sequence from positions 11 to 34 of HMGB1 (11-34); • a synthetic peptide consisting of the amino acid sequence from positions 11 to 44 of HMGB1 (11-44); • a synthetic peptide consisting of the amino acid sequence from positions 17 to 44 of HMGB1 (17-44); • a synthetic peptide consisting of the amino acid sequence from positions 1 to 25 of HMGB1 (1-25); and the whole mouse HMGB1 produced in HEK293 (1-215(HEK)) as a positive control were adjusted to 100 μg/ml and placed in the lower layer of a chemotaxis chamber to assess the migration-promoting activity on bone marrow mesenchymal stem cell line (MSC-1). Results
As positive controls, centrifuged supernatant of the skin of a one-day-old mouse (one individual) incubated in PBS at 4° C. for 12 hours, and the whole mouse HMGB1 (HMGB1(HEK_1-215)) produced in HEK293 were used. […]

Test [2] has as its system human-derived bone marrow mesenchymal stem cells (hMSC). Description: Migration assay on human-derived bone marrow mesenchymal stem cells. In kind it is cell-based. The note with it: human HMGB1 fragments produced in E. coli, 2 μM, FIG. 21B. An excerpt: Human HMGB1 fragments (2-215, 2-84, 2-44, 45-84, 85-169, 89-185, 89-195, and 89-205) were produced in E. coli and purified using appropriate columns in the same manner as described in Examples 14, 15, and 16 above. However, 89-215 was purified by the same method as used for 89-205 in Example 15.
Using human-derived bone marrow mesenchymal stem cells, each fragment was examined by the same migration assay performed on mouse-derived bone marrow mesenchymal stem cells (MSC-1) as described above. The fragments were used at a final concentration of 2 μM. The human-derived bone marrow mesenchymal stem cells used were hMSC (human Mesenchymal Stem Cell, Takara) at fourth passage. The growth medium used was a mesenchymal stem cell growth medium (MF medium, TOYOBO). The cells were cultured in an incubator under 5% CO2 at 37° C. The medium was changed with a fresh medium every two to four days. The cells were passaged when they reached 80% confluency.

[3] abbreviates: human HMGB1 fragments produced in E. coli, 2 μM, FIG. 18B.
Setting [4] is: human HMGB1 fragments produced in E. coli, 2 μM.
[5] abbreviates: human HMGB1 fragments 89-215, 89-205, 89-195, 89-185 and their Q column fractions, E. coli, 2 μM, FIGS. 19B and 19D.
Where [6] appears, read: human HMGB1 fragments 2-215, 2-205, 2-195, 2-185 produced in E. coli, 2 μM, FIG. 21A.

As to “2-44: human HMGB1 fragment, positions 2 to 44, produced in E. coli (GKGDPKKPRGKMSSYAFFVQTCREEHKKKHPDASVNFSEFSKK; UniProt P09429 2-44, looked up, fragment)”, the migration-promoting activity result was “showed migration-promoting activity on bone marrow mesenchymal stem cells” in test [1] (setting [3]) and “greater than human HMGB1 fragment (2-215)” in test [2]. Besides, in test [1] (setting [4]), the “migration-promoting activity per equal mass, 2-215 taken as 1” value was determined as 7.1 times. Moreover, the “migration-promoting activity per molar concentration, 2-215 taken as 1” value in test [1] (setting [4]) is 1.82 times.
“45-84: peptide of positions 45 to 84 of mouse HMGB1, produced using HEK293 (CSERWKTMSAKEKGKFEDMAKADKARYEREMKTYIPPKGE; UniProt P63158 45-84, looked up, fragment)”: the migration-promoting activity entry in test [1] (setting [3]) is on record as “showed migration-promoting activity on bone marrow mesenchymal stem cells”; in test [1] (protein and peptides produced using HEK293 (mouse HMGB1), 50 μg/ml, 4 h, FIG. 2A) it was “showed migration-promoting activity”; in test [2] it was “greater than human HMGB1 fragment (2-215)”. Further, in test [1] (setting [4]), the “migration-promoting activity per equal mass, 2-215 taken as 1” value was 8.1 times. Also, the “migration-promoting activity per molar concentration, 2-215 taken as 1” value in test [1] (setting [4]) turned out to be 2.04 times.

B1: 2-215: human HMGB1 positions 2 to 215 produced in E. coli, nearly the full length, positive control (protein, UniProt P09429 2-215, looked up, fragment)
chain: GKGDPKKPRGKMSSYAFFVQTCREEHKKKHPDASVNFSEFSKKCSERWKTMSAKEKGKFEDMAKADKARYEREMKTYIPPKGETKKKFKDPNAPKRPPSAFFLFCSEYRPKIKGEHPGLSIGDVAKKLGEMWNNTAADDKQPYEKKAAKLKEKYEKDIAAYRAKGKPDAAKKGVVKAEKSKKKKEEEEDEEDEEDEEEEEDEEDEDEEEDDDDE
On to B1, for which, in test [1] (setting [3]), the migration-promoting activity entry is “showed migration-promoting activity on bone marrow mesenchymal stem cells”.

B2: 2-81: human HMGB1 fragment, positions 2 to 81, produced in E. coli (protein, UniProt P09429 2-81, looked up, fragment)
chain: GKGDPKKPRGKMSSYAFFVQTCREEHKKKHPDASVNFSEFSKKCSERWKTMSAKEKGKFEDMAKADKARYEREMKTYIPP
For B2, the migration-promoting activity result in test [1] (setting [3]) was “showed migration-promoting activity on bone marrow mesenchymal stem cells”.

B3: 2-62: human HMGB1 fragment, positions 2 to 62, produced in E. coli (protein, UniProt P09429 2-62, looked up, fragment)
chain: GKGDPKKPRGKMSSYAFFVQTCREEHKKKHPDASVNFSEFSKKCSERWKTMSAKEKGKFED
For B3, the migration-promoting activity entry in test [1] (setting [3]) was “showed migration-promoting activity on bone marrow mesenchymal stem cells”.

B4: 89-215: human HMGB1 fragment, positions 89 to 215, produced in E. coli (protein, UniProt P09429 89-215, looked up, fragment)
chain: FKDPNAPKRPPSAFFLFCSEYRPKIKGEHPGLSIGDVAKKLGEMWNNTAADDKQPYEKKAAKLKEKYEKDIAAYRAKGKPDAAKKGVVKAEKSKKKKEEEEDEEDEEDEEEEEDEEDEDEEEDDDDE
Take B4: the migration-promoting activity result in test [1] (setting [5]) is given as “weak migration-promoting activity”.

B5: 2-170: human HMGB1 fragment, positions 2 to 170, produced in E. coli (protein, UniProt P09429 2-170, looked up, fragment)
chain: GKGDPKKPRGKMSSYAFFVQTCREEHKKKHPDASVNFSEFSKKCSERWKTMSAKEKGKFEDMAKADKARYEREMKTYIPPKGETKKKFKDPNAPKRPPSAFFLFCSEYRPKIKGEHPGLSIGDVAKKLGEMWNNTAADDKQPYEKKAAKLKEKYEKDIAAYRAKGKPDA
Take B5: in test [1] (setting [3]), the migration-promoting activity result is recorded as “showed migration-promoting activity on bone marrow mesenchymal stem cells”.

B6: 2-70: human HMGB1 fragment, positions 2 to 70, produced in E. coli (protein, UniProt P09429 2-70, looked up, fragment)
chain: GKGDPKKPRGKMSSYAFFVQTCREEHKKKHPDASVNFSEFSKKCSERWKTMSAKEKGKFEDMAKADKAR
As for B6, in test [1] (setting [3]), the migration-promoting activity entry was “showed migration-promoting activity on bone marrow mesenchymal stem cells”.

B7: 2-195: human HMGB1 fragment, amino acids of positions 2 to 195, produced in E. coli (protein, UniProt P09429 2-195, looked up, fragment)
chain: GKGDPKKPRGKMSSYAFFVQTCREEHKKKHPDASVNFSEFSKKCSERWKTMSAKEKGKFEDMAKADKARYEREMKTYIPPKGETKKKFKDPNAPKRPPSAFFLFCSEYRPKIKGEHPGLSIGDVAKKLGEMWNNTAADDKQPYEKKAAKLKEKYEKDIAAYRAKGKPDAAKKGVVKAEKSKKKKEEEEDEEDEE
For B7, the migration-promoting activity result in test [1] (setting [6]) was “stronger migration-promoting activity than fragments 2-215 and 2-205”.

B8: 93-215: human HMGB1 fragment, positions 93 to 215, produced in E. coli (protein, UniProt P09429 93-215, looked up, fragment)
chain: NAPKRPPSAFFLFCSEYRPKIKGEHPGLSIGDVAKKLGEMWNNTAADDKQPYEKKAAKLKEKYEKDIAAYRAKGKPDAAKKGVVKAEKSKKKKEEEEDEEDEEDEEEEEDEEDEDEEEDDDDE
For B8, in test [1] (setting [3]), the migration-promoting activity entry was “showed migration-promoting activity on bone marrow mesenchymal stem cells”.

B9: 89-205: human HMGB1 fragment, positions 89 to 205, produced in E. coli (protein, UniProt P09429 89-205, looked up, fragment)
chain: FKDPNAPKRPPSAFFLFCSEYRPKIKGEHPGLSIGDVAKKLGEMWNNTAADDKQPYEKKAAKLKEKYEKDIAAYRAKGKPDAAKKGVVKAEKSKKKKEEEEDEEDEEDEEEEEDEED
For B9, in test [1] (setting [5]), the migration-promoting activity entry is “weak migration-promoting activity”.

B10: 2-185: human HMGB1 fragment, amino acids of positions 2 to 185, produced in E. coli (protein, UniProt P09429 2-185, looked up, fragment)
chain: GKGDPKKPRGKMSSYAFFVQTCREEHKKKHPDASVNFSEFSKKCSERWKTMSAKEKGKFEDMAKADKARYEREMKTYIPPKGETKKKFKDPNAPKRPPSAFFLFCSEYRPKIKGEHPGLSIGDVAKKLGEMWNNTAADDKQPYEKKAAKLKEKYEKDIAAYRAKGKPDAAKKGVVKAEKSKKKK
With B10, in test [1] (setting [6]), the migration-promoting activity result was “stronger migration-promoting activity than fragments 2-215 and 2-205”.
